Measurements reported in PMC6026032.

B1: Cbln1: Cbln1N23Q (protein)
parent chain: MLGVVELLLLGTAWLAGPARGQNETEPIVLEGKCLVVCDSNPTSDPTGTALGISVRSGSAKVAFSAIRSTNHEPSEMSNRTMIIYFDQVLVNIGNNFDSERSTFIAPRKGIYSFNFHVVKVYNRQTIQVSLMLNGWPVISAFAGDQDVTREAASNGVLIQMEKGDRAYLKLERGNLMGGWKYSTFSGFLVFPL
B2: Cbln1: Cbln1N79Q (protein)
parent chain: B1 parent chain
B3: Cbln4: Cbln4N26Q (protein)
parent chain: MGSARRALSVVPAVLLILVLPVWAQNDTEPIVLEGKCLVVCDSNPATDSKGSSSSPLGISVRAANSKVAFSAVRSTNHEPSEMSNKTRIIYFDQILVNVGNFFTLESVFVAPRKGIYSFSFHVIKVYQSQTIQVNLMLNGKPVISAFAGDKDVTREAATNGVLLYLDKEDKVYLKLEKGNLLGGWQYSTFSGFLVFPL
B4: Cbln4: Cbln4N85Q (protein)
parent chain: B3 parent chain
B5: Cbln2: Cbln2N110Q (protein)
parent chain: MPAPGQGPRGPLLSMPGRRGALREPADFGSSLGAVLALLLLLLPACCPVRAQNDTEPIVLEGKCLVVCDSSPSGDGAVTSSLGISVRSGSAKVAFSATRSTNHEPSEMSNRTMTIYFDQVLVNIGNHFDLASSIFVAPRKGIYSFSFHVVKVYNRQTIQVSLMQNGYPVISAFAGDQDVTREAASNGVLLLMEREDKVHLKLERGNLMGGWKYSTFSGFLVFPL
B6: Cbln2: Cbln2N53Q (protein)
parent chain: B5 parent chain
B7: Cbln2: N110Q (protein)
parent chain: B5 parent chain
B8: Cbln1: N23Q (protein)
parent chain: B1 parent chain
B9: Cbln1: N79Q (protein)
parent chain: B1 parent chain

experiment: co-IP from conditioned medium; settings: glycan lost; control: wild type

Q: Which oligomerisation does the source give for B1 here?
A: The oligomerisation was “no change”.

Q: With B2 as the protein, how does the oligomerisation read?
A: The oligomerisation was “no change”.

Q: Which oligomerisation does the source give for B3 here?
A: Its oligomerisation is “no change”.

Q: Which oligomerisation does the source give for B4 here?
A: Its oligomerisation is “no change”.

experiment: native gel electrophoresis, HA immunoblot; settings: glycan lost; control: wild type

Q: With B5 as the protein, how does the oligomerisation read?
A: The oligomerisation was “no change”.

Q: For B6, which oligomerisation is on record?
A: The oligomerisation was “no change”.

Q: With B1 as the protein, how does the oligomerisation read?
A: The oligomerisation was “no change”.

Q: For B2, which oligomerisation is on record?
A: The oligomerisation was “no change”.

Q: For B3, which oligomerisation is on record?
A: The oligomerisation was “changes”.

Q: For B4, which oligomerisation is on record?
A: Its oligomerisation is “no change”.

experiment: immunoblot of HEK293T conditioned medium; settings: glycan lost; control: wild type

Q: With B7 as the protein, how does the expression_or_secretion read?
A: The expression_or_secretion was “no change”.

Q: For B8, which expression_or_secretion is on record?
A: Its expression_or_secretion is “no change”.

Q: With B9 as the protein, how does the expression_or_secretion read?
A: The expression_or_secretion was “no change”.
